According to PMC10696396, “HilE represses the activity of the Salmonella virulence regulator HilD via a mechanism distinct from that of intestinal long-chain fatty acids” (The Journal of Biological Chemistry, 2023):

Legend:
[1] = target: EYFP-HilD (Salmonella enterica) (UniProt P0CL08); assay: MST; HilE titrated against EYFP-HilD preincubated with 1% DMSO; MST on-time 1.5 s, 25 °C
[2] = target: EYFP-HilD (Salmonella enterica) (UniProt P0CL08); assay: MST; HilE titrated against 50 nM EYFP-HilD; 25 °C, 0.05% Pluronic F-127, MST on-time 1.5 s
[3] = target: HilD (full-length, unfused) (Salmonella enterica) (UniProt P0CL08); assay: SEC-MALS; Superdex 75 Increase 10/300 GL, 50 mM NaH2PO4 pH 7.0, 200 mM NaCl, 0.5 ml/min; protein concentrations of 100 μM (Fig. 4, D and E)

Question: How did the Kd [1] turn out when HilE (natural protein) was run?
Answer: 1630 nM

Question: And the Kd [2]?
Answer: 1820 nM

Question: What about the stoichiometry N [3] of the same substance?
Answer: 1
